In patent publication US20170002055A1, “Novel peptides and combination of peptides for use in immunotherapy against ovarian cancer and other cancers” (immatics biotechnologies GmbH, priority 2015, published 2017) one finds Peptide exchange data, which are given here for 70 substances.

The test addresses HLA-A*02:01 (Homo sapiens, UniProt P04439, D140Y/D185E/D98H/E176V/E277Q/G131W/G231S/I119V/I121R/I166T/I218V/L300P/L318F/N151K/N90K/P208A/P217A/Q86G/Q94H/R138H/R169H/T345S). Description: MHC binding assay (UV-ligand exchange, β2m ELISA, peptide exchange yield). The conditions noted are these: MHC class I binding score; binding to HLA-A*02:01 ranged by peptide exchange yield (UV-ligand exchange, β2m ELISA). In short, it runs like this:
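Peptide–HLA-A*02:01 complexes were formed by UV-mediated exchange of a UV-cleavable ligand for the test peptide. Exchange yield was measured by capturing complexes on streptavidin, detecting with HRP anti-β2m antibody (1 h, 37°C) and reading TMB absorbance at 450 nm.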
On the technique in general: In an ELISA, binding on a coated surface is turned into a signal by an enzyme label.
Consider “304 (MTLGQIYYL; listed as Homo sapiens) [compound 304]”, for which the Peptide exchange result was ““+++” (≧50 = +++)”.

For the substance “305 (SIANFSEFYV; listed as Homo sapiens) [compound 305]”, the Peptide exchange result is ““++++” (≧75% = ++++)”.

On to “306 (ALVNVQIPL; listed as Homo sapiens) [compound 306]”, for which the Peptide exchange result was ““+++” (≧50 = +++)”.

For “307 (ALPVSLPQI; listed as Homo sapiens) [compound 307]”, the Peptide exchange result is ““+++” (≧50 = +++)”.

“308 (SQYSGQLHEV; listed as Homo sapiens) [compound 308]”: the Peptide exchange entry is on record as ““+++” (≧50 = +++)”.

In the case of “309 (GLFDGVPTTA; listed as Homo sapiens) [compound 309]”, the Peptide exchange entry is reported as ““+++” (≧50 = +++)”.

As to “310 (FLVDTPLARA; listed as Homo sapiens) [compound 310]”, the Peptide exchange entry is ““++++” (≧75% = ++++)”.

Turning to “311 (RLYTGMHTV; listed as Homo sapiens) [compound 311]”, the Peptide exchange entry is reported as ““+++” (≧50 = +++)”.

Take “312 (IISDLTIAL; listed as Homo sapiens) [compound 312]”: the Peptide exchange result is given as ““+++” (≧50 = +++)”.

Take “313 (VLFDDELLMV; listed as Homo sapiens) [compound 313]”: the Peptide exchange result is ““+++” (≧50 = +++)”.

In the case of “314 (ALIAEGIALV; listed as Homo sapiens) [compound 314]”, the Peptide exchange entry is ““+++” (≧50 = +++)”.

As for “315 (YLQDVVEQA; listed as Homo sapiens) [compound 315]”, the Peptide exchange result was ““+++” (≧50 = +++)”.

In the case of “316 (ILLERLWYV; listed as Homo sapiens) [compound 316]”, the Peptide exchange entry was ““+++” (≧50 = +++)”.

“317 (SLAALVVHV; listed as Homo sapiens) [compound 317]”: the Peptide exchange result is reported as ““+++” (≧50 = +++)”.

Take “318 (GLINTGVLSV; listed as Homo sapiens) [compound 318]”: the Peptide exchange entry is ““++” (≧20% = ++)”.

Turning to “320 (KMFEFVEPLL; listed as Homo sapiens) [compound 320]”, the Peptide exchange result is ““++++” (≧75% = ++++)”.

Take “321 (GLFEDVTQPGILL; listed as Homo sapiens) [compound 321]”: the Peptide exchange entry is given as ““++++” (≧75% = ++++)”.

Consider “322 (TLMTSLPAL; listed as Homo sapiens) [compound 322]”, for which the Peptide exchange result is listed as ““+++” (≧50 = +++)”.

For the substance “324 (FLYDEIEAEV; listed as Homo sapiens) [compound 324]”, the Peptide exchange result is recorded as ““+++” (≧50 = +++)”.

Consider “325 (FIMPATVADATAV; listed as Homo sapiens) [compound 325]”, for which the Peptide exchange result is ““+++” (≧50 = +++)”.

In the case of “326 (FLPEALDFV; listed as Homo sapiens) [compound 326]”, the Peptide exchange entry was ““+++” (≧50 = +++)”.

On to “327 (GLAPFTEGISFV; listed as Homo sapiens) [compound 327]”, for which the Peptide exchange entry is listed as ““+++” (≧50 = +++)”.

As for “328 (ALNDQVFEI; listed as Homo sapiens) [compound 328]”, the Peptide exchange entry is listed as ““+++” (≧50 = +++)”.

On to “329 (FLVTLNNVEV; listed as Homo sapiens) [compound 329]”, for which the Peptide exchange entry is on record as ““++++” (≧75% = ++++)”.

“330 (QLALKVEGV; listed as Homo sapiens) [compound 330]”: the Peptide exchange result is on record as ““+++” (≧50 = +++)”.

On to “331 (KVDTVWVNV; listed as Homo sapiens) [compound 331]”, for which the Peptide exchange result is ““+++” (≧50 = +++)”.

As to “332 (YLISELEAA; listed as Homo sapiens) [compound 332]”, the Peptide exchange result is on record as ““+++” (≧50 = +++)”.

As for “333 (FLPDANSSV; listed as Homo sapiens) [compound 333]”, the Peptide exchange entry is listed as ““++” (≧20% = ++)”.

“334 (TLTKVLVAL; listed as Homo sapiens) [compound 334]”: the Peptide exchange result is on record as ““+++” (≧50 = +++)”.

Turning to “335 (YSLSSVVTV; listed as Homo sapiens) [compound 335]”, the Peptide exchange entry was ““+++” (≧50 = +++)”.

On to “336 (ILLTAIVQV; listed as Homo sapiens) [compound 336]”, for which the Peptide exchange result is ““+++” (≧50 = +++)”.

With “337 (HLLSELEAAPYL; listed as Homo sapiens) [compound 337]”, the Peptide exchange result is on record as ““++++” (≧75% = ++++)”.

As for “339 (GLWEIENNPTVKA; listed as Homo sapiens) [compound 339]”, the Peptide exchange entry was ““++++” (≧75% = ++++)”.

Turning to “340 (ALLSMTFPL; listed as Homo sapiens) [compound 340]”, the Peptide exchange entry is on record as ““++++” (≧75% = ++++)”.

Turning to “341 (SQIALNEKLVNL; listed as Homo sapiens) [compound 341]”, the Peptide exchange entry is reported as ““+++” (≧50 = +++)”.

Take “342 (HIYDKVMTV; listed as Homo sapiens) [compound 342]”: the Peptide exchange entry is ““+++” (≧50 = +++)”.

Consider “343 (SLLEVNEESTV; listed as Homo sapiens) [compound 343]”, for which the Peptide exchange result is recorded as ““+++” (≧50 = +++)”.

Turning to “344 (YLQDQHLLLTV; listed as Homo sapiens) [compound 344]”, the Peptide exchange result is ““+++” (≧50 = +++)”.

As for “345 (VIWKALIHL; listed as Homo sapiens) [compound 345]”, the Peptide exchange entry is given as ““+++” (≧50 = +++)”.

Take “346 (LLDSKVPSV; listed as Homo sapiens) [compound 346]”: the Peptide exchange entry was ““+++” (≧50 = +++)”.

Turning to “347 (SLFKHDPAAWEA; listed as Homo sapiens) [compound 347]”, the Peptide exchange result was ““++++” (≧75% = ++++)”.

Consider “348 (ILLDVKTRL; listed as Homo sapiens) [compound 348]”, for which the Peptide exchange result is given as ““++++” (≧75% = ++++)”.

As for “349 (SLTEYLQNV; listed as Homo sapiens) [compound 349]”, the Peptide exchange result is ““++++” (≧75% = ++++)”.

For the substance “350 (ALLDVTHSELTV; listed as Homo sapiens) [compound 350]”, the Peptide exchange entry is on record as ““+++” (≧50 = +++)”.

With “351 (SLIPNLRNV; listed as Homo sapiens) [compound 351]”, the Peptide exchange entry is ““+++” (≧50 = +++)”.

For “352 (SLLELLHIYV; listed as Homo sapiens) [compound 352]”, the Peptide exchange result is ““+++” (≧50 = +++)”.

Take “353 (YLFEMDSSL; listed as Homo sapiens) [compound 353]”: the Peptide exchange entry is recorded as ““++” (≧20% = ++)”.

“354 (LILEGVDTV; listed as Homo sapiens) [compound 354]”: the Peptide exchange entry is listed as ““++” (≧20% = ++)”.

Take “355 (SIQQSIERLLV; listed as Homo sapiens) [compound 355]”: the Peptide exchange result is listed as ““++” (≧20% = ++)”.

Regarding “356 (KLLGKLPEL; listed as Homo sapiens) [compound 356]”, the Peptide exchange entry is recorded as ““+++” (≧50 = +++)”.

On to “357 (SMHDLVLQV; listed as Homo sapiens) [compound 357]”, for which the Peptide exchange entry is reported as ““+++” (≧50 = +++)”.

In the case of “358 (ALDEYTSEL; listed as Homo sapiens) [compound 358]”, the Peptide exchange result is given as ““++++” (≧75% = ++++)”.

Take “359 (YLLPESVDL; listed as Homo sapiens) [compound 359]”: the Peptide exchange entry was ““+++” (≧50 = +++)”.

Consider “361 (ALYELEGTTV; listed as Homo sapiens) [compound 361]”, for which the Peptide exchange entry is recorded as ““+++” (≧50 = +++)”.

For the substance “362 (TLYGLSVLL; listed as Homo sapiens) [compound 362]”, the Peptide exchange entry is listed as ““+++” (≧50 = +++)”.

For the substance “363 (KVLDVSDLESV; listed as Homo sapiens) [compound 363]”, the Peptide exchange result is given as ““++” (≧20% = ++)”.

Regarding “364 (LLQNEQFEL; listed as Homo sapiens) [compound 364]”, the Peptide exchange entry is ““+++” (≧50 = +++)”.

As for “365 (YVIDQGETDVYV; listed as Homo sapiens) [compound 365]”, the Peptide exchange result is recorded as ““+++” (≧50 = +++)”.

“366 (RLLDMGETDLML; listed as Homo sapiens) [compound 366]”: the Peptide exchange entry is on record as ““+++” (≧50 = +++)”.

“367 (SLQNHNHQL; listed as Homo sapiens) [compound 367]”: the Peptide exchange entry is listed as ““+++” (≧50 = +++)”.

Turning to “369 (GLFPEHLIDV; listed as Homo sapiens) [compound 369]”, the Peptide exchange result is given as ““+++” (≧50 = +++)”.

For “370 (SLLQDLVSV; listed as Homo sapiens) [compound 370]”, the Peptide exchange entry was ““+++” (≧50 = +++)”.

For “371 (FLQAHLHTA; listed as Homo sapiens) [compound 371]”, the Peptide exchange entry is recorded as ““++++” (≧75% = ++++)”.

Turning to “372 (TMLLNIPLV; listed as Homo sapiens) [compound 372]”, the Peptide exchange entry was ““++” (≧20% = ++)”.

Turning to “373 (SLLEDKGLAEV; listed as Homo sapiens) [compound 373]”, the Peptide exchange result was ““++” (≧20% = ++)”.

“374 (FLLQQHLISA; listed as Homo sapiens) [compound 374]”: the Peptide exchange result is on record as ““++” (≧20% = ++)”.

Regarding “375 (SLTETIEGV; listed as Homo sapiens) [compound 375]”, the Peptide exchange result is listed as ““++” (≧20% = ++)”.

For the substance “376 (AMFESSQNVLL; listed as Homo sapiens) [compound 376]”, the Peptide exchange entry was ““++” (≧20% = ++)”.

With “377 (FLLDSSASV; listed as Homo sapiens) [compound 377]”, the Peptide exchange entry is recorded as ““++” (≧20% = ++)”.

For “378 (ALGYFVPYV; listed as Homo sapiens) [compound 378]”, the Peptide exchange entry was ““+++” (≧50 = +++)”.
